The source of these data is IntAct's records for PubMed 15652484.

The experiment concerns the target erp44_mouse Erp44 (UniProt Q9D1Q6).

Sequence of erp44_mouse Erp44 (Q9D1Q6 whole entry): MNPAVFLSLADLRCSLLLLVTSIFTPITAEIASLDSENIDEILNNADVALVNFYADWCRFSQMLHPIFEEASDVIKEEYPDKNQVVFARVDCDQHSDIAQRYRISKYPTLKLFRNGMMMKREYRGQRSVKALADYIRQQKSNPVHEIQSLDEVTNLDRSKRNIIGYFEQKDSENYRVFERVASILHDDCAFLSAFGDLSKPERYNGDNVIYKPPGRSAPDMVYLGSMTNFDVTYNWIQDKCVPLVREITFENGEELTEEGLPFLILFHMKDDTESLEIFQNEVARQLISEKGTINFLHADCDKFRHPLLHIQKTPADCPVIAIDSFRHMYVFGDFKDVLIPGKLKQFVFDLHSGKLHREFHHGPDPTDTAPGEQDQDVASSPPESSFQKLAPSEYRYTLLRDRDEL
Sequence of Inositol 1,4,5-trisphosphate-gated calcium channel ITPR1 (Mus musculus), P11881 C2504S (P11881 whole entry C2504S): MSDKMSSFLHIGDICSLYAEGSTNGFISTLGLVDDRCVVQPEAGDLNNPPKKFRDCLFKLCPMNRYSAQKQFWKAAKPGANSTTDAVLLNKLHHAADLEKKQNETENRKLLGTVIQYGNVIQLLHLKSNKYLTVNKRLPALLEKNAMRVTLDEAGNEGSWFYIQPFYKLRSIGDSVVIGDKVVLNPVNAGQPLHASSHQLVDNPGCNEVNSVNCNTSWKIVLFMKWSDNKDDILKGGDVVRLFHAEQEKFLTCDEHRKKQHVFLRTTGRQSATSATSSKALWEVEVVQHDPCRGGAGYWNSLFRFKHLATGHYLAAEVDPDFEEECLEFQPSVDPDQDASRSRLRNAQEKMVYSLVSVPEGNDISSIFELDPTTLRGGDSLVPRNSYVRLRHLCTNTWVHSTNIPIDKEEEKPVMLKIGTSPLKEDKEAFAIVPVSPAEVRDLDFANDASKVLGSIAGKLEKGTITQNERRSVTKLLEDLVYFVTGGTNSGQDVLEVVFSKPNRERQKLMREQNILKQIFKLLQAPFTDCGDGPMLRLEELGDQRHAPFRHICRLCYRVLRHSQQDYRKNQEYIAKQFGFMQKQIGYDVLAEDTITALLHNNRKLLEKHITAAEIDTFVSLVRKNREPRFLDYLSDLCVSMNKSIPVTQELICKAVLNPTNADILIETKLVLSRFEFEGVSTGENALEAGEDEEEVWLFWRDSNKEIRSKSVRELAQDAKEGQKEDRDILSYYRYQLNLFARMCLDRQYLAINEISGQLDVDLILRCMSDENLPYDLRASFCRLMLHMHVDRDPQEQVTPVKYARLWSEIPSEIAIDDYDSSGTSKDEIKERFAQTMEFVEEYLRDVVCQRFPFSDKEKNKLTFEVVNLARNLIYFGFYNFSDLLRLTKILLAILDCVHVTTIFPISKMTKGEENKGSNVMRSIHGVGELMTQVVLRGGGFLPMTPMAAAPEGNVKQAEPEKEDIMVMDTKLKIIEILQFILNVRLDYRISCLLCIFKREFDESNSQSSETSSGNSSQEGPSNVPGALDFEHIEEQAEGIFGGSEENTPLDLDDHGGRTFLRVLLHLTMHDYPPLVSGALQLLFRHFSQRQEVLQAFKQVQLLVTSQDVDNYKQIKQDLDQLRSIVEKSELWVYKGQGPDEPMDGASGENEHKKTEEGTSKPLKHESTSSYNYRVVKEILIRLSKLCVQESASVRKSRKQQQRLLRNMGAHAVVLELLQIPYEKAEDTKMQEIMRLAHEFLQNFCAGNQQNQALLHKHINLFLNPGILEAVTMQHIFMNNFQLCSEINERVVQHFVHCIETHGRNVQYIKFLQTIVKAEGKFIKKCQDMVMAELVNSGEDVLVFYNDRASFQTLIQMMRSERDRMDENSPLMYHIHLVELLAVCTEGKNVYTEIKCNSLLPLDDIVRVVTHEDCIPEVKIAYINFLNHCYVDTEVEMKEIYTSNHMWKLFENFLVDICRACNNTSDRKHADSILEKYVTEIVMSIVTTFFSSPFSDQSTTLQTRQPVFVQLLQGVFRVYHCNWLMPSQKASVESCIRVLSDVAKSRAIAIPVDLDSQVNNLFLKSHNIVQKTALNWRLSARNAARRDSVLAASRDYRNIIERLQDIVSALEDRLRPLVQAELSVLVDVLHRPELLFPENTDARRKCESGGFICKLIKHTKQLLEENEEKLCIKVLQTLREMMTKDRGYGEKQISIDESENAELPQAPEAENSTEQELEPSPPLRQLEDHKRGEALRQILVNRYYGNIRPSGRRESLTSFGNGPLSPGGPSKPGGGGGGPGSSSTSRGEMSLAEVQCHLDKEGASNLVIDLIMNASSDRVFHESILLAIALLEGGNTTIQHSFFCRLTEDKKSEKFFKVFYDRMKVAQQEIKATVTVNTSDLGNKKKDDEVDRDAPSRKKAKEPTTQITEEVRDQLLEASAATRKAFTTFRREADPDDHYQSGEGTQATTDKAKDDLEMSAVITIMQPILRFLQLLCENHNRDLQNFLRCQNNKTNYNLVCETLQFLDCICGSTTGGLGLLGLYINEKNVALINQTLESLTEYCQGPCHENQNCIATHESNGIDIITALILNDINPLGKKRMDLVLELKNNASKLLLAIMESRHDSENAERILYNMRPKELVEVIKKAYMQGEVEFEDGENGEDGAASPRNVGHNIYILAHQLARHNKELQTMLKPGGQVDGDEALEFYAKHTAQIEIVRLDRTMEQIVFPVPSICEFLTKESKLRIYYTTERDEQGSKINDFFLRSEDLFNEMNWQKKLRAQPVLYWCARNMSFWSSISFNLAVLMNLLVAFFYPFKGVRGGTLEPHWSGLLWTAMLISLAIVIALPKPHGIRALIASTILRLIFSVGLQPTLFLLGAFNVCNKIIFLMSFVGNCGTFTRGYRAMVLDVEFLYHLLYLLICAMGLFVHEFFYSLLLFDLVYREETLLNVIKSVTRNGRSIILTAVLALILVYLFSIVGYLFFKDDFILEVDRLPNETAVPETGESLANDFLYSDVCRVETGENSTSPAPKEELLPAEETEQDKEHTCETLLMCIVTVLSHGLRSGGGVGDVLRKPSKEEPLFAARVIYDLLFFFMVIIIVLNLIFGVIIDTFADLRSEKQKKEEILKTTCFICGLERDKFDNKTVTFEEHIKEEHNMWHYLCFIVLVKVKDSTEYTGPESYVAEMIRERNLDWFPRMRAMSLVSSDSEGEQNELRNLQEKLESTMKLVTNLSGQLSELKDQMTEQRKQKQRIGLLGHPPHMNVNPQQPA

“Inositol 1,4,5-trisphosphate-gated calcium channel ITPR1 (Mus musculus), P11881 C2496S”: the “effect of a mutation on the interaction” value is “decreasing interaction”.

For the substance “Inositol 1,4,5-trisphosphate-gated calcium channel ITPR1 (Mus musculus), P11881 C2504S”, the “effect of a mutation on the interaction” value was “decreasing interaction”.
